Article doi:10.1101/2024.09.13.612636 (bioRxiv, 2024)
“And” between values parts separate entries of the source, which are not always exact repeats. Equal entries are not always repeated.

T1: GST-LdPEX3Δ1-42 (L. donovani PEX3 without the N-terminal predicted transmembrane domain, GST-tagged) (Leishmania donovani, UniProt A0A3Q8IW98 43-526)
T1 sequence: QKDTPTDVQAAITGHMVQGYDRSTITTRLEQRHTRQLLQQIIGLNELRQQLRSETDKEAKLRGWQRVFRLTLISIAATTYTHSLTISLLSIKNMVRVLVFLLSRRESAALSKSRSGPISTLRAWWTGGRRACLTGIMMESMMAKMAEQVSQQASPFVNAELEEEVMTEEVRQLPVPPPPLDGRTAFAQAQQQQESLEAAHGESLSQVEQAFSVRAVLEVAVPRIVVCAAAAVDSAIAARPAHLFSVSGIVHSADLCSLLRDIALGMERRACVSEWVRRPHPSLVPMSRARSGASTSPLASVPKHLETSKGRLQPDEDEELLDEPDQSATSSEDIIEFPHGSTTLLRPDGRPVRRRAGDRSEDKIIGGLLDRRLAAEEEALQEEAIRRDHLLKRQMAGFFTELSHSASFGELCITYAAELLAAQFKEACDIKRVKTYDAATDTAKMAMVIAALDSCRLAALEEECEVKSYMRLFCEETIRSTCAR

B1: LdPEX19-His6 (C-terminally His6-tagged full-length L. donovani PEX19, pET21b) (natural protein)
chain: MSDDDLDALLDEAMDMVDEQERKHEEEVRVRDAKLEDDLQKALDEASGTAGGDADMMKMLMSMLGGDSADDASLDSFKKSVMTMVSSLEGEENLGEEDKANLLRVKELMRVMEEEDIDKANDLLEQMKQEGKLPDCNNVGDAEIDEASRRCMEMLQQLSSATQVGHLDPAATPGAASSSSAAPPAAPAGDGAEIPSEVGRATEAMASALISTLADPQFVEPIKLMRDSYGPYMDAHGSELSHEDCERYERQRAKAQEICDLLQNPISGAEDPRLIQLLELMNKYSELGDPPRNLVKYAPKNRKGVEECQ

Tests used:
[1] = target: GST-LdPEX3Δ1-42 (L. donovani PEX3 without the N-terminal predicted transmembrane domain, GST-tagged) (Leishmania donovani); assay: AlphaScreen or HTRF
[2] = target: T1, GST-LdPEX3Δ1-42 (L. donovani PEX3 …); assay: ELISA
[3] = target: T1, GST-LdPEX3Δ1-42 (L. donovani PEX3 …); assay: AlphaScreen or HTRF

| Molecule | Kd [1] [nM] | Kd [2] | Kd [3] [nM] |
| --- | --- | --- | --- |
| Tag-free LdPEX19 (from LdPEX19-T-His6 by thrombin cleavage) (natural protein) | 11.9 | – | – |
| B1 | – | 10.6 nM and 10.5 nM | 10.4 ± 2.57 |
